In article PMC2517623:
Values belong to the substance of their own block, whether it stands above or below them.

Molecular target: Crm1 (Xpo1) (UniProt P30822)
Experiment: biotin-peptide streptavidin pulldown, stained gel

- binding against the reference (reference: pS122 peptide, untreated, sites S122): stronger
Substance: Ace2 122-150 (from UniProt P21192) pS122 peptide, λ-phosphatase treated

- binding against the reference (reference: pS137 peptide, untreated, sites S137): stronger
Substance: Ace2 122-150 (from UniProt P21192) pS137 peptide, λ-phosphatase treated

- binding against the reference (reference: unphosphorylated 122-150 peptide, sites S122): weaker
Substance: Ace2 122-150 (from UniProt P21192) pS122 peptide

- binding against the reference (reference: unphosphorylated 122-150 peptide, sites S137): weaker
Substance: Ace2 122-150 (from UniProt P21192) pS137 peptide
